In article PMC3202057 (Journal of molecular biology, 2011):

T1: N-terminal effector PYRIN domain of NLRP12 (residues 1-98) (human, UniProt P59046 1-98)
T1 sequence: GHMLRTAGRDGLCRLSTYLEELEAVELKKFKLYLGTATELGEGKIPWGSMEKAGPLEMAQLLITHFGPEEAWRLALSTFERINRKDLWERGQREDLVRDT


Target: T1, N-terminal effector PYRIN domain of …
Experiment: NMR titration

Row | Binder | Kd [µM]
1 | FAF-1 UBA domain and linker region (residues 1-99) (domain or fragment, UniProt Q9UNN5 1-99, looked up) MASNMDREMILADFQACTGIENIDEAITLLEQNNWDLVAAINGVIPQENGILQSEYGGETIPGPAFNPASHPASAPTSSSSSAFRPVMPSRQIVERQPR | ≥ 50
2 | FAF-1 UBA domain (residues 1-57) (domain or fragment, UniProt Q9UNN5 1-57, looked up) MASNMDREMILADFQACTGIENIDEAITLLEQNNWDLVAAINGVIPQENGILQSEYG | ≥ 150
